Data set [1] concerns the target T1, CsrA-His6 (Campylobacter jejuni 81-176) (UniProt Q0P9F1).
T1 sequence: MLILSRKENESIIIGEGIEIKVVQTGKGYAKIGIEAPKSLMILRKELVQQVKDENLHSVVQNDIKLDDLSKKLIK
As to the kind of experiment: EMSA. To be noted: 10 mM Tris-HCl pH 7.5, 10 mM MgCl2, 100 mM KCl, 32.5 ng yeast RNA, 20 mM DTT, 7.5% glycerol, 4 U RNase inhibitor, 10 ul, 30 min at 37 C; 15% native PAGE. For orientation: Mobility shift assays separate free from complexed probe on a gel.

In data set [2] the test system is CsrA-His6 (Campylobacter jejuni 81-176). As to the kind of experiment: EMSA. To be noted: 10 mM Tris-HCl pH 7.5, 10 mM MgCl2, 100 mM KCl, 32.5 ng yeast RNA, 20 mM DTT, 7.5% glycerol, 4 U RNase inhibitor, 10 ul, 30 min at 37 C; 15% native PAGE.

By Kd is commonly meant a measure of binding affinity in units of concentration. A low value points to a tighter complex. “GGGUAUAAAUUUUUAAAAAAAAGUAACGAUAUAGCAUUUAACAAGCUCAUGGAUGAGUUUGAAAUUAUUUAAAAGGAUUUAAA [flaA mRNA 5' end transcript]” gave a dissociation constant (Kd) in data set [1] of 6.53 nM. flaA mRNA 5' end transcript yielded a dissociation constant Kd in data set [2] of 6.53 nM.
